Measurements from patent US5156956A, “Transgultaminase” (Ajinomoto Co., Inc., priority 1987, dated 1992).

Experiments:
[1] = Sausage: rheometer and organoleptic evaluation; details: 1 unit per 1 g of dry pork, 55° C. 2 h, then 80° C. 30 min
Method: Physical properties were measured with a rheometer (manufactured by Yamaden Co., Ltd.) and organoleptic evaluation (n=10) was performed. The amount of BTGase added was 1 unit per 1 g of dry pork. The enzyme reaction was carried out at 55° C. for 2 hours. After completion of the reaction, heating was performed at 80° C. for 30 minutes to make a product. As a control, BTGase-free product was used.

Soybean 11S globulin = experiment: Gelation, test tube inversion method; type: biochemical; parameters: key: .smallcircle.: gelled; Δ: weakly gelled; x: remained as solution; details: BTGase 0.02 U/mg protein, 55° C., 1 h, MTGase 0.1 U/mg, 37° C.
Method: (§1) 1) The BTGase (freeze dried product, specific activity of 2.50 Units/mg protein) prepared in Example 1 was added to 5 ml of each of 5 and 10 wt. % solutions or suspensions of protein foodstuffs prepared by the method described in Example 1 of Published Unexamined Japanese Patent Application No. 149645/83 or purchased, namely, (1) αsi -casein, (2) Na-caseinate, (3) soybean 11S globulin, (4) soybean 7S globulin, (5) soybean protein isolate "Ajipron S-2" (manufactured by Ajinomoto Co., Inc.), (6) water-extracted soybean protein, (7) acid-precipitated soybean protein, (8) soybean protein particles, (9) soybean protein micelles and (10) gelatin in 0.02 U per 1 mg of protein followed by shake incubation at 55° C. for an hour. After allowing to stand at room temperature, test tubes with samples were turned upside down, whereby gelation was determined by noting whether the samples drifted down or not.
(§2) For purposes of comparison, the results of gelation ability test with MTGase are also shown. The amount of MTGase added was 0.1 U per 1 mg of substrate protein.

Na-Caseinate = experiment: Gelation, test tube inversion method; type: biochemical; parameters: key: .smallcircle.: gelled; Δ: weakly gelled; x: remained as solution; details: BTGase 0.02 U/mg protein, 55° C., 1 h, MTGase 0.1 U/mg, 37° C.
Method: as §1, §2

Gelatin = experiment: Gelation, test tube inversion method; type: biochemical; parameters: key: .smallcircle.: gelled; Δ: weakly gelled; x: remained as solution; details: BTGase 0.02 U/mg protein, 55° C., 1 h, MTGase 0.1 U/mg, 37° C.
Method: as §1, §2

[2] = test system: Acid-precipitated soybean protein; experiment: Gelation, test tube inversion method; type: biochemical; parameters: key: .smallcircle.: gelled; Δ: weakly gelled; x: remained as solution; details: BTGase 0.02 U/mg protein, 55° C., 1 h, MTGase 0.1 U/mg, 37° C.
Method: as §1, §2

[3] = test system: Soybean protein particles; experiment: Gelation, test tube inversion method; type: biochemical; parameters: key: .smallcircle.: gelled; Δ: weakly gelled; x: remained as solution; details: BTGase 0.02 U/mg protein, 55° C., 1 h, MTGase 0.1 U/mg, 37° C.
Method: as §1, §2

Soybean protein micells = experiment: Gelation, test tube inversion method; type: biochemical; parameters: key: .smallcircle.: gelled; Δ: weakly gelled; x: remained as solution; details: BTGase 0.02 U/mg protein, 55° C., 1 h, MTGase 0.1 U/mg, 37° C.
Method: as §1, §2

[4] = test system: Water-extracted soybean protein; experiment: Gelation, test tube inversion method; type: biochemical; parameters: key: .smallcircle.: gelled; Δ: weakly gelled; x: remained as solution; details: BTGase 0.02 U/mg protein, 55° C., 1 h, MTGase 0.1 U/mg, 37° C.
Method: as §1, §2

Soybean 7S globulin = experiment: Gelation, test tube inversion method; type: biochemical; parameters: key: .smallcircle.: gelled; Δ: weakly gelled; x: remained as solution; details: BTGase 0.02 U/mg protein, 55° C., 1 h, MTGase 0.1 U/mg, 37° C.
Method: as §1, §2

αS1 -Casein = experiment: Gelation, test tube inversion method; type: biochemical; parameters: key: .smallcircle.: gelled; Δ: weakly gelled; x: remained as solution; details: BTGase 0.02 U/mg protein, 55° C., 1 h, MTGase 0.1 U/mg, 37° C.
Method: as §1, §2

[5] = test system: Ajipron S-2 (soybean protein isolate); experiment: Gelation, test tube inversion method; type: biochemical; parameters: key: .smallcircle.: gelled; Δ: weakly gelled; x: remained as solution; details: BTGase 0.02 U/mg protein, 55° C., 1 h, MTGase 0.1 U/mg, 37° C.
Method: as §1, §2

[6] = test system: oxhide-derived atelo-collagen; experiment: Gelation of atelo-collagen solutions; type: biochemical, ox; parameters: key: .smallcircle.: gelled; Δ: weakly gelled; x: remained as solution; details: 0.05 U/mg protein; for Gelation, Immediately After Completion of Incubation: 55° C. 60 minutes; for Gelation, After Heating at 100° C.: 100° C. 15 minutes; for Gelation, After Allowing to Stand for 60 Minutes: room temperature
Method: A necessary amount of oxhide-derived atelo-collagen powders (manufactured by Kouken K.K.) were taken in a test tube and 2 ml of 0.1M Tris-HCl buffer (pH 7.5) was added thereto. After maintaining in a water bath at 55° C. for 15 minutes, the mixture was stirred to prepare 3 to 10% atelo-collagen solutions. Before the solutions of high concentration were gelled due to cooling, BTGase was added thereto in 0.05 U/mg protein followed by incubation at 55° C. for 60 minutes. As a control for the all samples, 10% atelo-collagen solution with no BTGase added was also incubated likewise. Immediately after completion of the incubation, the system was allowed to stand at room temperature for 60 minutes. Then the system was further kept in a water bath of 100° C. for 15 minutes and then the condition in the test tube was observed.

Prawn myosin = experiment: Gelation, test tube inversion method; type: biochemical; parameters: key: .smallcircle.: gelled; Δ: weakly gelled; x: remained as solution; details: 5 ml, 3.6 units of BTGase, 35° C., 35 minutes at maximum, MTGase 0.1 U/mg, 37° C., 1 h
Method: 3) Prawn myosin was prepared as follows for use as a substrate for BTGase.
The shell of a fresh (live) prawn (body length of about 5 cm) was peeled off and the prawn flection muscle was taken out. After mincing, the mince was washed with ice water and homogenized under cooling in the presence of 0.1 mM DTT and 0.1 mM PMSF. By centrifugation, actomyosin was extracted and separated therefrom. By further ultracentrifugation at 10^5 ×g for 60 minutes, actin was removed to give a myosin-rich fraction. Further dilution precipitation and ultracentrifugation were repeated to give purified prawn myosin. […] By immersing in a water bath at 35° C., the reaction was initiated and carried out for 35 minutes at maximum.
as §2

B1: BTGase: microorganism-derived transglutaminase; in Examples 4-11 the freeze dried product prepared in Example 1 (S. mobaraense, i.e. BTG-1) (protein, UniProt P81453 77-407, looked up)
Protein-glutamine …: DSDDRVTPPAEPLDRMPDPYRPSYGRAETVVNNYIRKWQQVYSHRDGRKQQMTEEQREWLSYGCVGVTWVNSGQYPTNRLAFASFDEDRFKNELKNGRPRSGETRAEFEGRVAKESFDEEKGFQRAREVASVMNRALENAHDESAYLDNLKKELANGNDALRNEDARSPFYSALRNTPSFKERNGGNHDPSRMKAVIYSKHFWSGQDRSSSADKRKYGDPDAFRPAPGTGLVDMSRDRNIPRSPTSPGEGFVNFDYGWFGAQTEADADKTVWTHGNHYHAPNGSLGAMHVYESKFRNWSEGYSDFDRGAYVITFIPKSWNTAPDKVKQGWP
Viscosity Coefficient [1]: 1.92 × 10^9 dyn.sec.cm^-2 | Gelation, Soybean 11S globulin 5% (Soybean 11S globulin; 5%): .smallcircle. | Gelation, Soybean 11S globulin 10% (Soybean 11S globulin; 10%): .smallcircle. | Gelation, Na-Caseinate 5% (Na-Caseinate; 5%): .smallcircle. | Gelation, Na-Caseinate 10% (Na-Caseinate; 10%): .smallcircle. | Gelation, Gelatin 5% (Gelatin; 5%): .smallcircle. | Gelation, Gelatin 10% (Gelatin; 10%): .smallcircle. | Gelation, Acid-precipitated soybean protein 5% ([2]; 5%): .smallcircle. | Gelation, Acid-precipitated soybean protein 10% ([2]; 10%): .smallcircle. | Gelation, Soybean protein particles 5% ([3]; 5%): .smallcircle. | Gelation, Soybean protein particles 10% ([3]; 10%): .smallcircle. | Gelation, Soybean protein micells 5% (Soybean protein micells; 5%): Δ | Gelation, Soybean protein micells 10% (Soybean protein micells; 10%): .smallcircle. | Gelation, Water-extracted soybean protein 5% ([4]; 5%): .smallcircle. | Gelation, Water-extracted soybean protein 10% ([4]; 10%): .smallcircle. | Gelation, Soybean 7S globulin 5% (Soybean 7S globulin; 5%): .smallcircle. | Gelation, Soybean 7S globulin 10% (Soybean 7S globulin; 10%): .smallcircle. | Gelation, αS1 -Casein 5% (αS1 -Casein; 5%): .smallcircle. | Gelation, αS1 -Casein 10% (αS1 -Casein; 10%): .smallcircle. | Gelation, Ajipron S-2 5% ([5]; 5%): .smallcircle. | Gelation, Ajipron S-2 10% ([5]; 10%): .smallcircle. | Gelation, Immediately After Completion of Incubation ([6]; 3% Solution): .smallcircle. | Gelation, After Heating at 100° C. ([6]; 3% Solution): .smallcircle. | Gelation, After Allowing to Stand for 60 Minutes ([6]; 3% Solution): .smallcircle. | Gelation, Immediately After Completion of Incubation ([6]; 5% Solution): .smallcircle. | Gelation, After Heating at 100° C. ([6]; 5% Solution): .smallcircle. | Gelation, After Allowing to Stand for 60 Minutes ([6]; 5% Solution): .smallcircle. | Gelation, Immediately After Completion of Incubation ([6]; 10% Solution): .smallcircle. | Gelation, After Heating at 100° C. ([6]; 10% Solution): .smallcircle. | Gelation, After Allowing to Stand for 60 Minutes ([6]; 10% Solution): .smallcircle. | Gelation, Prawn myosin 3.6% (Prawn myosin): .smallcircle.
